Assay results reported in US20090263894A1 (AbbVie / Abbott, published 2009).

Columns and labels:
Experiment in all cases: flow cytometry, mAb titrated on yeast displaying NGAL
[1] = molecular target: T1, NGAL rAg S14A displayed on yeast (human, UniProt P80188 21-198)
T1 construct: Yeast display AGA2 fusion as m5
T1 chain: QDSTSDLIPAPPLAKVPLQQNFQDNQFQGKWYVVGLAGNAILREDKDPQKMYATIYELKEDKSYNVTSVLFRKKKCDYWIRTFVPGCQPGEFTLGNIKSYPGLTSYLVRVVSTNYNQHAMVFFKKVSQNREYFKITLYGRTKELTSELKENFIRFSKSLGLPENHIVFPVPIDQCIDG
Procedure: (§1) The side chain of each of the NGAL rAg residues identified from the epitope selections was altered by site-directed mutagenesis to alanine to confirm the functional epitope (direct contact residues) of each NGAL mAb subclone.
(§2) The change in Gibbs free binding energy (ΔΔG_Ala-WT) was determined to assess the energetic impact of each alanine substitution for mAb binding. The change in Gibbs free binding energy upon alanine substitution was calculated using the following equation [2],
(§3) For these experiments, observed fluorescence (F) was used to solve for KD using equation [1]. The KD derived from equation [1] one was then used in equation [2] to derive the change in Gibbs free binding energy upon alanine substitution. The KD is read from the abscissa of each of the curves at the inflection point.

[2] = molecular target: T2, NGAL rAg S158A displayed on yeast (human, UniProt P80188 21-198)
T2 construct: Yeast display AGA2 fusion as m5
T2 chain: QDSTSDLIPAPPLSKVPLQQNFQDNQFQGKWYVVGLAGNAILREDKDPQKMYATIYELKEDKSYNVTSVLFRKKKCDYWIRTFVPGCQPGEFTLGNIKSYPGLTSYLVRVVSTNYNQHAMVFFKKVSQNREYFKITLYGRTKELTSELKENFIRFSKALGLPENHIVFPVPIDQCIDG
Procedure: as §1, §2, §3

[3] = molecular target: T3, NGAL rAg L159A displayed on yeast (human, UniProt P80188 21-198)
T3 construct: Yeast display AGA2 fusion as m5
T3 chain: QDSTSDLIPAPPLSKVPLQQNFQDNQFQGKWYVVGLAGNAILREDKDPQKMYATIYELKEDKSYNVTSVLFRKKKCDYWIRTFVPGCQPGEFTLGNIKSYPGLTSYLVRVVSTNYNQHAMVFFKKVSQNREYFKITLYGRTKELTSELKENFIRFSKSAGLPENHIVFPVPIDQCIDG
Procedure: as §1, §2, §3

[4] = molecular target: T4, NGAL rAg G160A displayed on yeast (human, UniProt P80188 21-198)
T4 construct: Yeast display AGA2 fusion as m5
T4 chain: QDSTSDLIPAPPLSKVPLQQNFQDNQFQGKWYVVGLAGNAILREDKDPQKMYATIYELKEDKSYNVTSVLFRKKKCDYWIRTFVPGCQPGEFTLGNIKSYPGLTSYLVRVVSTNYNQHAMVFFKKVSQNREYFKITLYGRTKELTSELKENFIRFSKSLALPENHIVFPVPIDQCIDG
Procedure: as §1, §2, §3

[5] = molecular target: T5, NGAL rAg H118A displayed on yeast (human, UniProt P80188 21-198)
T5 construct: Yeast display AGA2 fusion as m5
T5 chain: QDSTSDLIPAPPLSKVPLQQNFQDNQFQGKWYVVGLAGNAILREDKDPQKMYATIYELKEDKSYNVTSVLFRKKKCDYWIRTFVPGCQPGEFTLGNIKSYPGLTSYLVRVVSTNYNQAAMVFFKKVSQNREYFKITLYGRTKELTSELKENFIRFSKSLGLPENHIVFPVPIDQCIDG
Procedure: as §1, §2, §3

[6] = molecular target: T6, NGAL rAg A119G displayed on yeast (human, UniProt P80188 21-198)
T6 construct: Yeast display AGA2 fusion as m5
T6 chain: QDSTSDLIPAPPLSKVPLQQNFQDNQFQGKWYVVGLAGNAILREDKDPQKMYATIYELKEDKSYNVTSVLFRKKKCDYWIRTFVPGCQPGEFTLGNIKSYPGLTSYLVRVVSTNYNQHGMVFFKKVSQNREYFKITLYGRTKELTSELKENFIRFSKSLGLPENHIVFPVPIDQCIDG
Procedure: as §1, §2, §3

[7] = molecular target: T7, NGAL rAg E147A displayed on yeast (human, UniProt P80188 21-198)
T7 construct: Yeast display AGA2 fusion as m5
T7 chain: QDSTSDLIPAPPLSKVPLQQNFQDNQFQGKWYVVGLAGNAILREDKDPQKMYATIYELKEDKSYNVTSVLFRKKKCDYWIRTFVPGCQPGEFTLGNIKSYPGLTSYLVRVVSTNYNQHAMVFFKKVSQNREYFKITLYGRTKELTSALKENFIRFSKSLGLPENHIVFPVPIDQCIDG
Procedure: as §1, §2, §3

[8] = molecular target: T8, NGAL rAg Q117A displayed on yeast (human, UniProt P80188 21-198)
T8 construct: Yeast display AGA2 fusion as m5
T8 chain: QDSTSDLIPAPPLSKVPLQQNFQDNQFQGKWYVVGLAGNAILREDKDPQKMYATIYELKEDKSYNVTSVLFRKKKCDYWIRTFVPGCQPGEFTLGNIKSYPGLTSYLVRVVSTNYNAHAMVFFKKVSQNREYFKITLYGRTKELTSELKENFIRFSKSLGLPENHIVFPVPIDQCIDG
Procedure: as §1, §2, §3

[9] = molecular target: T9, NGAL rAg S112A displayed on yeast (human, UniProt P80188 21-198)
T9 construct: Yeast display AGA2 fusion as m5
T9 chain: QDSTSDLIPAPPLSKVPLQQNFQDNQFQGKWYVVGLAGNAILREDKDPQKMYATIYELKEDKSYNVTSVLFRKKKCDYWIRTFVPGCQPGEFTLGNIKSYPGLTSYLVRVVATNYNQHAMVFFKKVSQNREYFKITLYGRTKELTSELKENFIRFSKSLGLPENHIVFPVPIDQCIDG
Procedure: as §1, §2, §3

B1: anti-NGAL monoclonal antibody 1-903-430 (antibody, V domains shown)
VH: KIQLVQSGPELKKPGETVKISCKASGYTFTNYGMNWVKQAPGKGLKWMGWININTGEPTYAEEFKGRFAFSLETSATTAFLQINNLKNEDTATYLCARDSYSGGFDYWGQGTIVTVSS
VL: DIVMTQSPSSLSVSAGEKVTLSCKSSQSLLISGDQKNYLAWYQQKPGQPPKLLIYGASTRDSGVPDRFTGSGSGADFTLTISSVQAEDLAVYYCQNDHSFPPTFGAGTKLELKR
- Kd [1]: 0.281 nM
- ΔKD (KD against KD of WT) [1]: 1.38 fold
- ΔΔG Ala-WT [1]: 0.19 kcal/mol
- Kd [2]: 0.242 nM
- ΔKD (KD against KD of WT) [2]: 1.19 fold
- ΔΔG Ala-WT [2]: 0.1 kcal/mol
- Kd [3]: 0.137 nM
- ΔKD (KD against KD of WT) [3]: 0.67 fold
- ΔΔG Ala-WT [3]: -0.23 kcal/mol
- Kd [4]: 0.164 nM
- ΔKD (KD against KD of WT) [4]: 0.8 fold
- ΔΔG Ala-WT [4]: -0.13 kcal/mol

B2: anti-NGAL monoclonal antibody 1-2322-455 (antibody, V domains shown)
VH: EVQLVESGGGLVQPGGSLKLSCAASGFTFNNYYMSWVRQTPERRLEWVAYISSSGGSTYYSDSVRGRFTISRDTARNTLYLQMTSLKSEDTAMYYCARHFGDYSYFDYWGQGTTLTVSS
VL: DIQMTQSPASLSASVGETVTITCRASENFYSYLAWYQQKQGKSPQLLVYNAKTLAEGVPSRFSGSGSGTQFSLKINSLQPEDFGTYYCQHHYDIPLTFGAGTKLELKR
- Kd [5]: 0.114 nM
- ΔKD (KD against KD of WT) [5]: 14.1 fold
- ΔΔG Ala-WT [5]: 1.56 kcal/mol
- Kd [6]: 0.00783 nM
- ΔKD (KD against KD of WT) [6]: 0.97 fold
- ΔΔG Ala-WT [6]: -0.02 kcal/mol
- Kd [7]: 492 nM
- ΔKD (KD against KD of WT) [7]: 61000 fold
- ΔΔG Ala-WT [7]: 6.5 kcal/mol
- Kd [8]: 0.0307 nM
- ΔKD (KD against KD of WT) [8]: 3.79 fold
- ΔΔG Ala-WT [8]: 0.79 kcal/mol
- Kd [9]: 0.0793 nM
- ΔKD (KD against KD of WT) [9]: 9.79 fold
- ΔΔG Ala-WT [9]: 1.35 kcal/mol
